pKd: −log10 of the molar value.
Molecular target: Mlph-ABD labelled with ATTO 488 NHS Ester dye (mouse) (UniProt Q91V27)
Assay: MST

UniProt Q91V27, sequence (Q91V27 401-590): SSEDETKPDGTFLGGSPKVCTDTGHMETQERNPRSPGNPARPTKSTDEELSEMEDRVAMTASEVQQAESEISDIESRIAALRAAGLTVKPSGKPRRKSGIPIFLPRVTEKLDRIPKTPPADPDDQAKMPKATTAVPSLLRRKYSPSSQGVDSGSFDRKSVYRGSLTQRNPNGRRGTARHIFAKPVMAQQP

Flag-Myo5a-MTD (residues 1106-1467), bacterial-expressed (domain or fragment)
pKd: 6.25

Source: doi:10.1101/2023.11.01.565146
